{"source": "the nanobody polyreactivity screen of Harvey et al. (2022)", "data": [{"assay": "yeast display, Sf9 membrane polyspecificity reagent, FACS + sequencing; frameworks hold sequencing errors", "how_it_was_run": "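Galactose-induced (36–48 hours) yeast carrying a synthetic nanobody display library were exposed to 10% biotinylated, detergent-solubilized Sf9 membrane reagent at 4 °C for 1 hour. FACS followed streptavidin microbead enrichment, using low and high (top ~1%) gates for expression (anti-HA) and reagent binding (streptavidin). Colony PCR, MiSeq 2 × 250 sequencing and CDR-length filtering followed. Labels for polyreactivity reflect the gate of origin.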", "values": [{"sequence": "QVQLGESGGGIVQAGGSLRLSCAASGRTLQQYVMGWYRQAPGKETELVAAITRGGRTNYADSVKGRFTISRDNAKNTVYLQRNSLKPEDTAVYYCNSRYPSRLVAWLDYWGQGTQVTVSS", "polyreactivity (PSR sort gate)": "low polyreactivity"}, {"sequence": "QVQLGESGGGLVPAGGSLRLSCAASGGTFKTNAMGWYRQAPGKERELVAAITGSGTSTYYADSVKGRFTISRDNAKNTVYLHMNSLKPEDTAVYYCAADNLYHPGIGDDYWGQGTQVTVSS", "polyreactivity (PSR sort gate)": "low polyreactivity"}, {"sequence": "QVQLGESGGGLVQAGGCLRLSCAASGSIFAANAMGWYRQAPGKERELVAAINSGDSTNYADSVKGRFTISRDYAKKTVYLQMNSLKPEDTAVYYCARGLEERYDYWGQGTQVTVSS", "polyreactivity (PSR sort gate)": "low polyreactivity"}, {"sequence": "QVQLGESGGGLVQAGGSLRLICAASGSIFDQYAMGWSRPAPGKERELVAAIDTSGGSTYYADSVKGRFTISRDNAKYTVYLQMNSLKPEDTAVYYCAARGDGTFYEGYDYWGQGTQVTVSS", "polyreactivity (PSR sort gate)": "low polyreactivity"}, {"sequence": "QVQLGESGGGLVQAGGSLRLSCAASGFIFFSNAMGWYRQAPGKERELVAAIRSGGSTNYADSVKGRFTISRDNAKNTVYLQMNSQKPEDTAVYYCNVLWLRSRRKYDYWGQGTQVTVSS", "polyreactivity (PSR sort gate)": "low polyreactivity"}, {"sequence": "QVQLGESGGGLVQAGGSLRLSCAASGFTFRIYTMGWYRQAPGKERELVAAISSRGGSTYYADSVKGRFTISRDNAKNTVYLQMNSLKPEDTAVYYCAASGRVYSSGYDYWGQGTQVTVSS", "polyreactivity (PSR sort gate)": "high polyreactivity"}, {"sequence": "QVQLGESGGGLVQAGGSLRLSCAASGNTFYRNAMGWYRQAPGKERELVAAIDYSAGSTYYADCVKGRFTISRDNAKNTVYLQMHSLKPEDTADDYCAAVARTSRGRRYYSWGQGTQVTVSS", "polyreactivity (PSR sort gate)": "low polyreactivity"}, {"sequence": "QVQLGESGGGLVQAGGSLRLSCAASGRIFSAYAMGWSRQEPGKERELVAAITRSGGSTYYADSVKGRFTISRDNAKNTVYLQMNSLKPEDTAVYYCAAGYFVSDAWSWYHWVEHGYWGQGTQVTVSS", "polyreactivity (PSR sort gate)": "high polyreactivity"}, {"sequence": "QVQLGESGGGLVQAGGSLRLSCAASGRISGYAMGWYRQAPGKERELVAAISKSAARTYYADSVKGRFTISRDNAKNTVYLQMNSLKPEDTAVYYCAADKPYRYDYWGQGTQVTLSS", "polyreactivity (PSR sort gate)": "high polyreactivity"}, {"sequence": "QVQLGESGGGLVQAGGSLRLSCAASGRNFSTYTMGWYRQATWKERELVASISWSGVRTRYADSVKGRFTISRDNAKNTVYLQMNSLKPEDTAVYYCAAVVPYYYRSPSNHMGYWGQGTQVTVSS", "polyreactivity (PSR sort gate)": "high polyreactivity"}, {"sequence": "QVQLGESGGGLVQAGGSLRLSCAASGRTFSYYAKGWNRPAPGKERELVGAISSTGGSTYYADSVKGRFTISRDNAKNTVYLQMNSLKPEDTAVYYCAARWYVLYYRGGYCGQGTQVTVSS", "polyreactivity (PSR sort gate)": "low polyreactivity"}, {"sequence": "QVQLGESGGGLVQAGGSLRLSCAASGRTFVSNAMGWYRPAPGNERELVAAITQSGGSTYADSVKGRFTISRDNAKNTVYLQMNSLKPEDTAVYYCNADHAFVGTYYERHDYWGQGTQVTVSS", "polyreactivity (PSR sort gate)": "low polyreactivity"}, {"sequence": "QVQLGESGGGLVQAGGSLRLSCAASGSIFFLYAMGWYRQAPGKERELVAAISLSTGNTYYADSVKGRFTISRDNAKNTVYVQKNSLKPEDTAVYYCAAEDYWSAYYWGQGTQVTVSS", "polyreactivity (PSR sort gate)": "high polyreactivity"}, {"sequence": "QVQLGESGGGLVQAGGSLRLSCAASGSIFGSYAMGWYRQATGKERELVAAISYSGGTTYYADSVKGRFTNSRDNAKNTVYLQMNSLKPEDTAVYYCNAPVAYEREYEYWGQGTQVTVSS", "polyreactivity (PSR sort gate)": "low polyreactivity"}, {"sequence": "QVQLGESGGGLVQAGGSLRLSCAASGSIFVPYAMGWYRQAPGKERELVAVITSGGSTYYADSVKGRFTISRDNAKNTVYLQMNSLKPEDTAVYYCYADLYYVWSTLSQFDYWGQGTQVTVSS", "polyreactivity (PSR sort gate)": "low polyreactivity"}, {"sequence": "QVQLGESGGGLVQAGGSLRLSCAASGSIFYGYAMGWYRHAPGKERELVAAITRDGSTNYADSVKGRFTISLDNAKNTVYLQMNSLKPEDTAVYYCAADTRSRRLSLVRRDYWGQGTQVTVSS", "polyreactivity (PSR sort gate)": "high polyreactivity"}, {"sequence": "QVQLGESGGGLVQAGGSLRLSCAASGSIVDVYAMGWYRPAPGKERELVADITSGDITNYADSVKGRFTISRDNAKNTVYLQMNSLKPEDTAVYYCATPLKLAYSPKLDYWGQGTQLTVSS", "polyreactivity (PSR sort gate)": "low polyreactivity"}, {"sequence": "QVQLGESGGGLVQAGGSLRLSCAASGSTFAYNERGWYSQAPGHERELVADIRSGGNTNYADSVKGRFTISRDNAKNTVYLQMPSLKPEDTAVYYCATDGYRIDVYHPDYRYDYWGQGTQVTVSS", "polyreactivity (PSR sort gate)": "low polyreactivity"}, {"sequence": "QVQLGESGGGLVQAGGSLRLSCAASGSTFIDYAMGWYRQAPGKERELVAAITNGGNTKYADSVKGRFTISRDNAKNTVYLQMNSLKPEDTAVYYCAKYYYTSIVGYDSWGQGTQVTVSS", "polyreactivity (PSR sort gate)": "low polyreactivity"}, {"sequence": "QVQLGESGGGLVQAGGSLRLSCAASGSTFVVYAMGWYRQAPGKERELVAAITRGASTTYADSVKGRFTISRDNAKNTVYLQMNSLKPEDTAVYYCAAAVAYEYLQSAYTRYYYWGQGTQVTVSS", "polyreactivity (PSR sort gate)": "high polyreactivity"}, {"sequence": "QVQLGESGGGLVQAGGSLRLSCAASGSTFWPYAMGWYRQAPGKERELVATIRWSGGSTSYADSVKGRFTISRDNAKNTVYLQMNSVKPEDTAVFYCAARDFHYYRFKTYGYWGQGTQVTVSS", "polyreactivity (PSR sort gate)": "high polyreactivity"}, {"sequence": "QVQLGESGGGLVQAGGSLRLSCAASGSTFYVYAQGWYRPAPGKERELVAAISSSGARTYYADSVKGRFTISRDNAKNTVYLQMNCLKPDDTAVLYCAARRYYKFYYWGHGTQVTVSS", "polyreactivity (PSR sort gate)": "high polyreactivity"}, {"sequence": "QVQLGESGGGLVQAGGSLRLSCAASGSTIRRYTMGWYRQAPGKERELDAAITGSGGSTYYADSVKGRFTISRDNAKNTVYLQMNSLKPEDPAVYYCAAPPWRRIVGGIYDYWGQGTQVTVSS", "polyreactivity (PSR sort gate)": "high polyreactivity"}, {"sequence": "QVQLGESGGGLVQAGGSLRLSCAASGYTFRPYAMGGYRQAPGKESELVAAISSGDSTNYADSVKGRFTISRDNAKNTVYLQMNSLNPEDTAVYYCAARRVGGGFYTWRNPAYEYWGQGTQVTVSS", "polyreactivity (PSR sort gate)": "high polyreactivity"}, {"sequence": "QVQLGESGGGLVQAGGSLRLSCAGSGRTFVRSARGWSSQAPGKARELVARITSRGTSTYYADSVKGRFTSSRDNAKNTDYLLMNSLNPEDNAVYYCNNVRTFRDNSRYDYWGQGTHVTVSS", "polyreactivity (PSR sort gate)": "low polyreactivity"}, {"sequence": "QVQLGESGGGLVQAGGSLSLSCAASGFSISWYVMGWYRLAPGKERELVAAISWSGDRTYYADSVKGRFTISRDNAKNTVYLQMNSLKPEDTAVFYCAARRWRKYFSGYNYWGQGTQVTVSS", "polyreactivity (PSR sort gate)": "high polyreactivity"}, {"sequence": "QVQLGESGGGLVQAGGSLSLSCAASGNTFVSNAMGWYRQATGKERELVATISSGAHTYYADSVKGRFTISRDNAKNTVYLQMKSLKPEDTAVYYCASTSYGYWVGYIPEVDFWGQGTQVSVSS", "polyreactivity (PSR sort gate)": "low polyreactivity"}, {"sequence": "QVQLGESGGGLVQSGGSLRLSCAASGSIFDWYDKGWYRQAPGKERELVATITRDGSTNYADSVKGRFTISRDNAKNTVYLQMNSLKPEDTAVYYCAAESRRFWYGLFGNEYGYWGQGTQVTVSS", "polyreactivity (PSR sort gate)": "low polyreactivity"}, {"sequence": "QVQLGESGLGLVQAGGSLRLSCAAYGSIFYIYAMGWYRQAPGKERELVAAISRSGGRTYYADSVKGRFTISRDNAKNTVYLQMNSLKPEYTAVYYCAARDHYSNGGMNYWGQGTQVTVSS", "polyreactivity (PSR sort gate)": "high polyreactivity"}, {"sequence": "QVQLGESRGGLVQAGGSLRLSCAASGTFAYKTIGWYRQAPGKEREWVAAITSSGGSTYYADSVKGRFTISRDNAKNTVYVLMNSLKPEDTAVYYCDKGSTWYYRKYDYWGQGTQVTVSS", "polyreactivity (PSR sort gate)": "high polyreactivity"}, {"sequence": "QVQLHESAGGLVQAGGSLRLRCSASGYISCDASRGWYRQAPGKERELAASITKGSSTNYADSVKGRFTIRDNAKNTVYLQMNRLKPEDTAVCYCAVTYPYWGDYTYWGQGTQVTVSS", "polyreactivity (PSR sort gate)": "low polyreactivity"}, {"sequence": "QVQLHESGGGLVQAGGSLRLICAASGSISILQSMGWYRQAPGKERELVAGINWGATTYYADRVKGRLTTSRDYAKNTVYLQMNSLKPEATAVYYCAVPTYYTNPLLYWGQGTQVTVSS", "polyreactivity (PSR sort gate)": "low polyreactivity"}, {"sequence": "QVQLIESGGGLDQAGGSLRLSCAASGFIFWEYAMGWYRQAPGKERELVAGISTSGGSTYYADSVKGLFTISRDNAKNTVYLQMNSLKPEDTAVYYCAVEGWDDTYFRQDMDYWGQGTQVTVSS", "polyreactivity (PSR sort gate)": "low polyreactivity"}, {"sequence": "QVQLIESGGGLVQAGGSLRLSCAASGIIFYDYAMGWYRPAPGKERELVATITSGGSTNYADSVKGRFTISRDNAKNTVYLQMNSLKPEDTAVYYCAAGRGLILGGVYGYDYWGQGTQVTVSS", "polyreactivity (PSR sort gate)": "low polyreactivity"}, {"sequence": "QVQLIESGGGLVQAGGSLRLSCAASGRTFGRYTMGWYRQAPGKERELVADISGTGGRTYYSDSVKGRFTISRDNAKNTVYLQMNSLKPEDTAVYYCNAVLHRRFDYWGQGTQVTVSS", "polyreactivity (PSR sort gate)": "high polyreactivity"}, {"sequence": "QVQLKESGGGQVQAGGSLRLCCAASGKIIPDAGMGWYRQAPGKEREFVAGISRGANTYYADSVKGRFTISRDNAKNTLYLHMYSLKPEDTAVFYCAVNVPWTYQYGYWGQGTQVTVSS", "polyreactivity (PSR sort gate)": "high polyreactivity"}, {"sequence": "QVQLLDSGGGLVQAGGSLRLSCAASGSIFGRNAMVWYRQAPGKEREFVATITSRGGRTYYADSVKGRFTISRDNAKNTVYLQMNSLKPEDTAVYYCAADTYISTLKKYRLGDYWGQGTQVTVSS", "polyreactivity (PSR sort gate)": "low polyreactivity"}, {"sequence": "QVQLLESGAGLVHAGGSLRISCAASGRTFGLNAMAWNPPAHGKETELVAAISSSGGSTYYADSVKGRFTISRDNPKNTVYLQMNSLTPEDTAVYYCAKVLNRYGTAYYYWGQGTQVTVSS", "polyreactivity (PSR sort gate)": "high polyreactivity"}, {"sequence": "QVQLLESGAGLVQAGGSLRLSCAAYGSTSYDYAMGWYRQAPGKERELVAAISGSSSTTYYADSVKGRFTISRDNAKNTVYLQMNSLKPEDTAVYYCNAVTTSGYGYGYWGQGTQVTVSS", "polyreactivity (PSR sort gate)": "low polyreactivity"}, {"sequence": "QVQLLESGAGLVQAGGSLRLSSAASGSIFNLNAMAWYRQAPGKERELVAGIRWSGGRTYYADSVKGRFTISRDNAKNTVYLQMNSLKPVDNEVYYCTAVGYLSWWYDYEYWGQGTQVTVST", "polyreactivity (PSR sort gate)": "high polyreactivity"}, {"sequence": "QVQLLESGGGIVQAGGSLRLSCDSSGSTFGTNAMGWYRQAPGKERELVAVITFSGGSTYYADSVKGRFTISRDNAKNTVYLQMNSLKPEDTAVYYCAKDGFITFVYDHDYWGQGTQVTVSS", "polyreactivity (PSR sort gate)": "low polyreactivity"}, {"sequence": "QVQLLESGGGKVQAVGSLRLSCAASGSIDDWYAMGWYRQAPGKERELLAAINEGGGSTYYADSVKGRFTISRDNAKNTVYFQMNILKPEDTAFYYCNAELSFRYPVFRELDYWGQGSQVTVSS", "polyreactivity (PSR sort gate)": "low polyreactivity"}, {"sequence": "QVQLLESGGGLDQAGGSLRISCPASGSIFWSNAMGWYRQAPGKEREFVAALTWSGDNTYFADSVKGRFTISRENAKNTVDLQMNSLKPEDTAVYYCAAVFQNKAVGGVTSIYDCRGQGTQVTVSS", "polyreactivity (PSR sort gate)": "low polyreactivity"}]}]}
